Results as given in patent US20070092449A1.

Biological target: TrkB receptor (mouse neuromuscular junction) (mouse) (UniProt P15209)
Experiment: cell-based or functional assay

Sequence of UniProt P15209 (P15209 32-821): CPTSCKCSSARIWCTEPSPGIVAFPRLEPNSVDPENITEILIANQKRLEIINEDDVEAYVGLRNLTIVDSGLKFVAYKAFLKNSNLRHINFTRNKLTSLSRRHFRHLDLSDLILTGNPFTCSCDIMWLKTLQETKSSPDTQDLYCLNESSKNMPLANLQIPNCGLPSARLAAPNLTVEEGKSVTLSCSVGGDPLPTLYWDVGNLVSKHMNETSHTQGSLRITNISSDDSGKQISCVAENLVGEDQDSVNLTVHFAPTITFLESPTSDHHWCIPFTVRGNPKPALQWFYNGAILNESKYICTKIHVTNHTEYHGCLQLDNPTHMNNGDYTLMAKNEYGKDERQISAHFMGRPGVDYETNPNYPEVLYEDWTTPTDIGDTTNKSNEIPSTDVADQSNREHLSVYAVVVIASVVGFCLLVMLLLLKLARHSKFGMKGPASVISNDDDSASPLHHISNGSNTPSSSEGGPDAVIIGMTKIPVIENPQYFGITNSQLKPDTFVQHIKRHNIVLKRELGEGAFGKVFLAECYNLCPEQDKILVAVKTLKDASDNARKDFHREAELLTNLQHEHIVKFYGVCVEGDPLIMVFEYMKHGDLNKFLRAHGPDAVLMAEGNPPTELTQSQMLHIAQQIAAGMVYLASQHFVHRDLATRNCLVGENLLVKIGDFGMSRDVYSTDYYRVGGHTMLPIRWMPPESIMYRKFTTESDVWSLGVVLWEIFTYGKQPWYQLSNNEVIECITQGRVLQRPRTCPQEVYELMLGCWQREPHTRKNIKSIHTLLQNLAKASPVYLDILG

Substance	elevation in the level of GFP-TTC concentration at the NMJ (100 ng BDNF) [fold]	elevation in the level of GFP-TTC concentration at the NMJ (250 ng BDNF) [fold]	increase of GFP-TTC signal at the NMJ after BoTx/A block [fold]	GFP-TTC localization at the NMJ [fold]
recombinant human BDNF (Alomone labs) (from UniProt P23560 129-247) (ligand)	1.72	1.15	2.05	–
recombinant human NT-4 (Alomone labs) (from UniProt P34130 81-210) (ligand)	–	–	–	1.54
